In the supplement of paper PMC12764529:
± gives the half width of the 95% confidence interval.

What was measured:
[1] = folding stability dG unfold from trypsin proteolysis; higher = more stable
How it was run: (§1)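 Sequencing followed digestion of designed mini-proteins with trypsin and chymotrypsin, each at 11 concentrations in threefold dilutions together with a no-protease condition. The mini-proteins were under 80 residues, had no cysteine, sat in a PA-tagged cDNA display construct, and were kept only if AlphaFold2 dimer inter-PAE was above 15. From the counts, Bayesian fitting gave K50, and unfolding free energy was derived against a sequence-predicted unfolded-state K50 and a shared folded-state K50, per protease or combined.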

[2] = folding stability dG unfold from chymotrypsin proteolysis; higher = more stable
How it was run: as §1

[3] = folding stability dG unfold (combined trypsin and chymotrypsin); higher = more stable
How it was run: as §1

Sequence	folding stability dG unfold [1]	folding stability dG unfold [2]	folding stability dG unfold [3]
SAGGMTPEELEAAARAAAAALRAELEAGDPDVEVDLEVDPEKGTATFTVTDRATGRPRTLTVPFAELASAGG [r13_354_JUSTAS]	0.871 ± 0.074 kcal/mol	1.94 ± 0.054 kcal/mol	1.53 ± 0.073 kcal/mol
SAGGSAGGPVSVDPSTGTVTITVPPGTATPVVEAIAAALGLPVETATTPLPDGTTTVTVTIPAASAGGSAGG [r6_419_JUSTAS]	0.733 ± 0.1 kcal/mol	0.816 ± 0.1 kcal/mol	0.844 ± 0.22 kcal/mol
SAGGSMTTITLTLEFELDENGEVDPEKIEAEAEKIKEENPEIKELTVEVKRDPNSNKITVTVTAKVPSAGGS [r8_258_JUSTAS]	2.79 ± 0.2 kcal/mol	3.29 ± 0.19 kcal/mol	3.06 ± 0.18 kcal/mol
SAGGSAGGSAGGMPGVTTTSTTTTTLPNGTVVTTTTTTVLLPTGTTVTVTVTTTTSATTSSAGGSAGGSAGG [r11_274_JUSTAS]	2.77 ± 0.11 kcal/mol	2.61 ± 0.088 kcal/mol	2.68 ± 0.12 kcal/mol
SAGGSAMKKIKIEVEKKGDEYIVRIKIKNPDGKIEEIEIKLKDEEEAKKLAEELLKEGKIDEIELESAGGSA [r15_575_TrROS_Hall]	2.7 ± 0.18 kcal/mol	2.29 ± 0.077 kcal/mol	2.57 ± 0.18 kcal/mol
SMVFTLPGGIEIKVEPEEDSYRFVIELPSGERLEVPVPPENLEEFIRELIRKALEIANPNITEEEIEKLASA [r9_634_TrMRF]	3.22 ± 0.26 kcal/mol	4.02 ± 0.09 kcal/mol	3.59 ± 0.29 kcal/mol
SEPVPVKIEISTSVDSNGNPSVTITVYNEEKVYTNPLNGATILSVDPNKQYIVIENPALGTKLTLSYTLISA [r9_1186_JUSTAS]	2.07 ± 0.086 kcal/mol	2.75 ± 0.048 kcal/mol	2.49 ± 0.093 kcal/mol
SAGGSFSVDVPPDATVEVEEKVKRPDGSEVHLKITITRLPTSGKVLVTVEDNPPEKGSTTKEEIVPLESAGG [r13_934_JUSTAS]	-0.431 ± 0.38 kcal/mol	0.975 ± 0.068 kcal/mol	0.658 ± 0.28 kcal/mol
SKAEIVEIKIEKVEKDGKKYYKVKIKVKTKDGKIKEIEITFPEGMSEEEIKKKIEELAKELGIEKVEIKPSA [r9_1203_TrROS_Hall]	3.76 ± 0.44 kcal/mol	4.7 ± 0.24 kcal/mol	4.53 ± 0.67 kcal/mol
SAKKENSVPVTIEIELEFDSIEKAKKAIEKLAAEIEKETGAKIEIKVEIEEKENNYIVKVELTIYLPKESAG [r14_626_TrMRF]	1.6 ± 0.06 kcal/mol	1.55 ± 0.051 kcal/mol	1.64 ± 0.077 kcal/mol
SAGGSAGGSAGGPGWRTIEFWIPVDDFLDEIKLPPGITPIRIIKPNPNGYVRIMIIYPYSAGGSAGGSAGGS [r10_352_TrROS]	2.53 ± 0.1 kcal/mol	3.05 ± 0.059 kcal/mol	2.89 ± 0.14 kcal/mol
SAGGSAGGSAGGSWLEFTFIDPGYGWIISTMKIEINPNGNLNMDMEMVPLKPADDPEDASAGGSAGGSAGGS [r4_178_TrROS]	2.38 ± 0.13 kcal/mol	3.32 ± 0.099 kcal/mol	2.9 ± 0.16 kcal/mol
SAGGSEVETVKVKIKVKIDGKVYEVEAEVEVFTDEDGRKVLRITLPDGRVVEIPLEDADKIEEIEVSAGGSA [r2_297_TrROS_Hall]	4.7 ± 0.19 kcal/mol	4 ± 0.11 kcal/mol	4.25 ± 0.087 kcal/mol
SAGGSPATVLSSSTLSTTPLPDGTTLTTSETVTLLPNGEPVVTTTTTTTAPDGSVTTTTTTTPLDAASAGGS [r16_261_JUSTAS]	1.05 ± 0.043 kcal/mol	0.671 ± 0.043 kcal/mol	0.885 ± 0.047 kcal/mol
SAGGGRPILFRPPDGSVEVVPVPADATLEEVKEVAEAAAAARGYTELSFDPATETVTIDLGGDRVEAASAGG [r13_572_JUSTAS]	-1.46 ± 0.47 kcal/mol	0.824 ± 0.024 kcal/mol	0.426 ± 0.049 kcal/mol
SAGSRTVTLTFYRPLSRPPGGAPVVREAERTVTLNLPDDTLSEEEIEALAEELRAEHPDVEVEITIDDSAGG [r19_369_JUSTAS]	0.664 ± 0.049 kcal/mol	1.41 ± 0.092 kcal/mol	1.18 ± 0.17 kcal/mol
SAGGSAGGSAGYESVVNELKRKGYKVEVKKTPDGTYVVTVTKKDGTVETITLGPEGGKISSAGGSAGGSAGG [r17_503_JUSTAS]	2.67 ± 0.14 kcal/mol	4.36 ± 0.12 kcal/mol	4.16 ± 0.15 kcal/mol
SAGGKVTLIEVEFEGGNPTISLTVTNADGSVEAVFVSPSPTDVLYATATLTVGGHPVVVVARASKDESAGGS [r16_672_TrMRF]	1.3 ± 0.094 kcal/mol	2.11 ± 0.056 kcal/mol	1.8 ± 0.12 kcal/mol
SAGGMTLTIEIVVPPGTTVEELKKALEELGYEITSIEVEYDPETDLVTVRMEIRLPPPPPVSEEEKKSAGGS [r16_584_TrROS_Hall]	1.87 ± 0.076 kcal/mol	3.23 ± 0.16 kcal/mol	2.73 ± 0.17 kcal/mol
SAGGSAGGSELPDGPALVVLPINSKPVVALAKVNSTGKIEVYIPNPGKKFTFDLDQAEVYPVLSAGGSAGGS [r12_782_TrMRF]	-0.1 ± 0.082 kcal/mol	0.533 ± 0.1 kcal/mol	0.35 ± 0.061 kcal/mol
SAGGSAGGSLEVKVLGIVGDKPVEVTLPAGLGELTLEEIRAAFPPGEWRLVLRDENGNETPLTSAGGSAGGS [r12_540_TrMRF]	0.663 ± 0.089 kcal/mol	-0.00936 ± 0.18 kcal/mol	0.446 ± 0.16 kcal/mol

Sequence	folding stability dG unfold [1]	folding stability dG unfold [2]	folding stability dG unfold [3]
SAGGIKIQDPDDGEWIEFPLPIRNPGDGKPYPFKVEIPVRRDPENGRPYFYIEIEFPGNGRKMTFPLRSAGG [r13_262_TrROS]	0.518 ± 0.06 kcal/mol	1.12 ± 0.058 kcal/mol	0.918 ± 0.057 kcal/mol
SAGGSAPPPIKIKFKYPNGRPMELEFNPENGNYEIKQPDGEKEEVPMENIKEIRIPPGIKDVEIVPSAGGSA [r15_1043_TrROS]	-0.579 ± 0.27 kcal/mol	-0.0709 ± 0.41 kcal/mol	< -1 kcal/mol
SEFPESVPVDWVERELTFSSSSKEELEKKIKELLKNIEIEVSYDPKTNKYTLKIKFPSKEKAEKVEELLSSA [r9_764_JUSTAS]	2.22 ± 0.067 kcal/mol	3.268 ± 0.026 kcal/mol	2.96 ± 0.14 kcal/mol
SAGGSAGGSAGGLPKPVTVTLSRPEGGETLTLTFPSGTTPEEVRAAVEAEPDLSILSISSSAGGSAGGSAGG [r7_624_JUSTAS]	1.2 ± 0.074 kcal/mol	0.892 ± 0.063 kcal/mol	1.1 ± 0.059 kcal/mol
SAGGMEIKEVKYDPEEGYLYIVVAAPPSVSPSEVVPAVVRAARELTGAEVEVEVDPETGYVVAKVPVSAGGS [r8_314_TrMRF]	1.43 ± 0.026 kcal/mol	1.92 ± 0.043 kcal/mol	1.77 ± 0.089 kcal/mol
SAGGSAGGSAGLFIPETGLLVVYDPAPGTLHVFRITGGDGLEIEPVGEVEVDPDNPELGTAFSAGGSAGGSA [r18_448_TrMRF]	-0.284 ± 0.29 kcal/mol	0.464 ± 0.16 kcal/mol	0.327 ± 0.18 kcal/mol
SGVSVKVTVEGNTITIEVSADAKIKIEVTFPTKKATYEVEVEPGKPVTFTIPLPKDVPKDAFIDKIDIGGSA [r9_1152_TrMRF]	1.98 ± 0.11 kcal/mol	3.56 ± 0.12 kcal/mol	3.03 ± 0.17 kcal/mol
SAGGSAGGSAMITIKVSPDVPVPSNTPITLPNGKKVKATVTPVPSPEDGTPVLKITLDPNLISAGGSAGGSA [r18_476_JUSTAS]	-0.934 ± 0.24 kcal/mol	0.891 ± 0.023 kcal/mol	0.446 ± 0.044 kcal/mol
SAGGKKIEIKEENGSLVIKVDGYLVTIEPIDGKLVATVVKKDKKTKKWKIVETKILTLDEILELLKKSAGGS [r8_174_TrROS_Hall]	1.91 ± 0.057 kcal/mol	3.034 ± 0.026 kcal/mol	2.66 ± 0.099 kcal/mol
SAGGMVLVSTPSNRGASSEILKEAAEAISAGDPDKAAELAREYFQKNFPPDEPIKIEIFVDPPVEPESAGGS [r8_48_TrMRF]	0.476 ± 0.011 kcal/mol	0.744 ± 0.063 kcal/mol	0.662 ± 0.044 kcal/mol
SAGGMLLLTLTVDRVEEAEFPEKVPYLRTTTQPVVVPGTTLEEAEAVAAALAAAHGVPVTLTVTPETGSAGG [r13_320_JUSTAS]	-0.314 ± 0.16 kcal/mol	-0.175 ± 0.11 kcal/mol	-0.189 ± 0.072 kcal/mol
SDEDLEILRVEATPDTIRILFKIPSNPDLYIEVPITVFEDETSRRILINARILRPETGEVIAEIPFEIPLSA [r9_18_TrMRF]	3.53 ± 0.16 kcal/mol	4.24 ± 0.13 kcal/mol	3.78 ± 0.24 kcal/mol
SAGGSAGGMYTKTYNVPPDWKVTATATAPGGATVTDSSAPNGNFTLTFPASLADATTFTVTVTPSAGGSAGG [r6_237_JUSTAS]	-0.869 ± 0.47 kcal/mol	0.641 ± 0.13 kcal/mol	0.285 ± 0.14 kcal/mol
SAGGSAGGSAGGGKKKVTVEFVIKVPKNSKPVFFTIKGGIKVEFYPIPDTNYALVKVTFGSAGGSAGGSAGG [r7_796_TrMRF]	2.46 ± 0.19 kcal/mol	3.92 ± 0.12 kcal/mol	3.52 ± 0.15 kcal/mol
SAGMMYKITIKTKNGEKIEIEIPAEELENLTEEQLKELAKELAKKLEEEGIEVEKVEVKIEPVKPEELSAGG [r19_334_TrROS_Hall]	3.3 ± 0.23 kcal/mol	2.93 ± 0.058 kcal/mol	3.04 ± 0.13 kcal/mol
SAGMGATLVSESEEEIDSSGVRKLTYRSPGSLLVETLYPDGTVPVYVIDPSTGKVVEERVFHVPPDVPLSAG [r14_676_JUSTAS]	0.179 ± 0.13 kcal/mol	0.166 ± 0.17 kcal/mol	0.204 ± 0.13 kcal/mol
SAGGSAMKIEITVEKNENGELTITVKIYDKNGKLVKEIKLKVKTEEEAKKALKELAEKLGIEVEPESAGGSA [r15_242_TrROS_Hall]	2.03 ± 0.48 kcal/mol	3.67 ± 0.16 kcal/mol	3.36 ± 0.44 kcal/mol
SAGGSAGGMVKVSSDPATGKVYVTYPGADPEAVAEKVKKEYGAKKIKVEKDPNKDVTTITITVESAGGSAGG [r6_662_JUSTAS]	-1.01 ± 0.45 kcal/mol	0.271 ± 0.14 kcal/mol	-0.0511 ± 0.19 kcal/mol
SAGGSAGGSAGKIPEIIKKTNAVEKDGKIFLGIKTDGKYYLIELEKKTLKIKKIEPFPDKSAGGSAGGSAGG [r11_808_TrMRF]	-0.135 ± 0.14 kcal/mol	0.776 ± 0.12 kcal/mol	0.488 ± 0.085 kcal/mol
SAGGNIKIKLKGKIYDLNSNKYYDVEIEYDPKTGKAIITTPKGLKFEINPKEKKAEIPSKNYALEIGSAGGS [r16_743_TrMRF]	1.21 ± 0.096 kcal/mol	1.37 ± 0.17 kcal/mol	1.2 ± 0.16 kcal/mol
SAGMIKVEVYTLDPNGVLTKETYEIPLLPGTPIEEVVNELTEPGTGAVEIVEYNPPPPEIKIKIVRFPASAG [r5_227_TrMRF]	1.48 ± 0.43 kcal/mol	2.94 ± 0.09 kcal/mol	2.49 ± 0.23 kcal/mol
